Experimental data published in patent US20150197564A1 (Regeneron, published 2015).

Tests used:
bovine LPL [1] = target: T1, bovine LPL (bovine, UniProt P11151 29-478, limits assumed); test: cell-based or functional assay
T1 sequence (looked up): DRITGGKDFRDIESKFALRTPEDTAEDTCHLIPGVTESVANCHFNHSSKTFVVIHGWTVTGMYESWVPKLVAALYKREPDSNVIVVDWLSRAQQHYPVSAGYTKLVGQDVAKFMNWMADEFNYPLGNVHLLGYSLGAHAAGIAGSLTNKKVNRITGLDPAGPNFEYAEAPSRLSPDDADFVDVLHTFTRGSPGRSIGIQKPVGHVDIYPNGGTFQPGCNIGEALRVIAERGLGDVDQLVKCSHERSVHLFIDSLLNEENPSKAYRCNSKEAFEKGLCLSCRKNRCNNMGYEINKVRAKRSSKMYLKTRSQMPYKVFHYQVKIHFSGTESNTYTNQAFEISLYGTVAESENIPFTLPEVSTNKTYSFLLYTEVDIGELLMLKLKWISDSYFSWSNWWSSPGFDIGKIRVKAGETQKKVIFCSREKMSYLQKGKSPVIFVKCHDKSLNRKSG

bovine LPL [2] = target: T1, bovine LPL; test: cell-based or functional assay; remark: listed apart in the source

B1: mANGPTL3(17-240)-His (other)
chain: GAPSRVDPDLSSFDSAPSEPKSRFAMLDDVKILANGLLQLGHGLKDFVHKTKGQINDIFQKLNIFDQSFYDLSLRTNEIKEEEKELRRTTSTLQVKNEEVKNMSVELNSKLESLLEEKTALQHKVRALEEQLTNLILSPAGAQEHPEVTSLKSFVEQQDNSIRELLQSVEEQYKQLSQQHMQIKEIEKQLRKTGIQEPSENSLSSKSRAPRTTPPLQLNETENTEQDASHHHHHH
Bovine LPL [1]
  EC50 (nM), inhibition of LPL activity: 199 nM
Bovine LPL [2]
  IC50 for blocking LPL: 0.341 µM
